Our source for the Kd values is article PMC7611526.

Common to all, as to experiment: EMSA
In general terms: In EMSA bound probe runs differently from free probe, usually more slowly.

Data set [1] has as its system OCT4-del-73 (Homo sapiens).
For another data set, the system named is OCT4-DBD (Homo sapiens).
The test system of the next data set is OCT4-WT (Homo sapiens).

The term Kd denotes the free concentration of one partner at which half of the binding sites on the other are occupied at equilibrium, for simple one-to-one binding. A lower Kd goes with higher affinity.

For LIN28B-nucleosome, the Kd in data set [1] was 0.949 nM.
Take LIN28B-DNA: the Kd in data set [1] stood at 0.85 nM; with OCT4-DBD (Homo sapiens), 4.53 nM; in the data set on OCT4-WT (Homo sapiens) it was 1.44 nM.
